Key:
[1] = target: VP4 spike protein, unprocessed precursor, rotavirus strain SA11 (clone SA11-C4111) (simian rotavirus strain SA11); assay: cryo-EM structure; single-particle three-dimensional reconstruction with icosahedral symmetry of vitrified purified virions (NTR-TLP and TR-TLP of strains SA11 and OSU), 200 kV; virions assembled in infected MA104 cells and purified in CsCl gradients; 11.9-15.4 Å (FSC 0.3)
[2] = target: VP4 spike protein, unprocessed precursor, porcine rotavirus strain OSU (clone OSU-C5111) (porcine rotavirus strain OSU) (UniProt P11114); assay: as above

Substance	stoichiometry N [1]	stoichiometry N [2]
VP4 spike protein, unprocessed precursor, rotavirus strain SA11 (clone SA11-C4111) (natural protein)	3	
VP4 spike protein, unprocessed precursor, porcine rotavirus strain OSU (clone OSU-C5111) (from UniProt P11114 1-776) (natural protein)		3
